The text below walks through data of article PMC5489143, “One ligand, two regulators and three binding sites: How KDPG controls primary carbon metabolism in Pseudomonas” (PLoS Genetics, 2017).

For data set [1], the target named is T1, RccR (RccR-His) (Pseudomonas paralactis, UniProt A0A0R3AJU3).
T1 construct: gene hexR; full gene in pET42b, E. coli BL21(DE3) pLysS; C-terminal His tag kept; nickel and heparin columns
T1 sequence (A0A0R3AJU3 1-288): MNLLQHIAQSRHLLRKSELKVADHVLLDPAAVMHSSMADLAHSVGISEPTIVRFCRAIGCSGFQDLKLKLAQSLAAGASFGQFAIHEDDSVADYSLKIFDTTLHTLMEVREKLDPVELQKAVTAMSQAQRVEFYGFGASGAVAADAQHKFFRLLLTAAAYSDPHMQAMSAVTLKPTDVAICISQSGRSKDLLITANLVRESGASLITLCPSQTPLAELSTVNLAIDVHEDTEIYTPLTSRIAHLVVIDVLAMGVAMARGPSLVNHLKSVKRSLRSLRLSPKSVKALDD
Briefly: SPR (ReDCaT, Biacore T200), change of RccR binding to immobilised DNA. The conditions noted are these: effector; lowers binding to aceE and rccR sites, raises binding to aceA 28 bp site; 0.5 uM RccR-His, 0-1000 uM ligand, 10 mM Hepes pH 7.4, 300 mM NaCl, 3 mM EDTA, 25 C.

Data set [2] relates to RccR-His (Pseudomonas fluorescens SBW25). In words: DNase I footprinting. The conditions noted are these: full protection concentration, SPR: 10 mM Hepes pH 7.4, 300 mM NaCl, 3 mM EDTA, 0.05% Tween20, 25 C, DNase I footprint: 10 mM Tris-HCl pH 8.0, 50 mM NaCl, 10 mM KCl, 5 mM MgCl2, 1 mM DTT ….

For `O=C(O)C(=O)C[C@H](O)[C@H](O)COP(=O)(O)O` [KDPG, 2-keto-3-deoxy-6-phosphogluconate], the “%Rmax” value in data set [1] was “KDPG addition decreased the affinity of RccR-His for both aceE and rccR consensus sequences”.
In turn, aceA promoter DNase I probe had a binding signal in data set [2] (lower affinity than aceE and rccR) of 80 nM.
In data set [2] (two sites), aceE promoter DNase I probe yielded a binding signal of 10 nM.
In the case of rccR promoter DNase I probe, in data set [2], the binding signal turned out to be 20 nM.
